# Results as given in patent publication US6824783.
# Molecular target: viral gp41 (HIV-1 transmembrane protein) of HIV-1IIIB (HIV-1 IIIB)
# Test: cell-based or functional assay
Substance,Cell fusion (IC90),HIV infectivity (IC90)
"M41 (maltose binding protein fused to the extracellular domain of HIV-1 gp41, residues 540-686) (from UniProt P03377 540-686)",> 50 µM,> 16 µM
M41-P (M41 with an Ile to Pro mutation at position 578) (from UniProt P03377 540-686),0.083 µM,0.066 µM
M41-PΔ178 (M41-P from which the DP-178 region has been deleted; gp41 residues 540-642 with Ile578Pro) (from UniProt P03377 540-642),> 50 µM,> 8 µM
